Results: patent US20180244730A1 (OXFORD UNIVERSITY INNOVATION, published 2018)

B1: SnoopCatcher (designed binder)
chain: MGSSHHHHHHSSGLVPRGSHMKPLRGAVFSLQKQHPDYPDIYGAIDQNGTYQNVRTGEDGKLTFKNLSDGKYRLFENSEPAGYKPVQNKPIVAFQIVNGEVRDVTSIVPQDIPATYEFTNGKHYITNEPIPPK
notes: also called SnoopCatcher fused to a His-Tag

Key:
[1] = biological target: B1; assay: electrospray ionization mass spectrometry
[2] = biological target: SnoopTag-MBP; assay: mixing, SDS-PAGE with Coomassie staining (covalent isopeptide adduct)
[3] = biological target: B1; assay: mixing, SDS-PAGE with Coomassie staining
[4] = biological target: T1, SpyCatcher; assay: mixing, SDS-PAGE with Coomassie staining
T1 construct: also called pDEST14-SpyCatcher (GenBank JQ478411, Addgene plasmid ID 35044)

[5] = biological target: SnoopTag-MBP; assay: mixing, SDS-PAGE with Coomassie staining

T1 sequence (chain, as listed by the source): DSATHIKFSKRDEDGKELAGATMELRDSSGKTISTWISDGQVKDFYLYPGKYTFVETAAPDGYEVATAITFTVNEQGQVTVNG

KLGDIEFIKVNK [synthetic SnoopTag peptide]: binds [1].

B1: binds [2].

B2: RrgACatcher (designed binder)
chain: KLGDIEFIKVNKNDKKPLRGAVFSLQKQHPDYPDIYGAIDQNGTYQNVRTGEDGKLTFKNLSDGKYRLFENSEPAGYKPVQNKPIVAFQIVNGEVRDVTSIVPQ
B2: no binding [3]; no binding [4]; no binding [5].
